The chains are these.
T1: extracellular domain of mouse IL23R (mIL23R ECD) (mouse, UniProt Q8K4B4 24-374)
T1 construct: also called mIL-23 ECD antigen
T1 sequence: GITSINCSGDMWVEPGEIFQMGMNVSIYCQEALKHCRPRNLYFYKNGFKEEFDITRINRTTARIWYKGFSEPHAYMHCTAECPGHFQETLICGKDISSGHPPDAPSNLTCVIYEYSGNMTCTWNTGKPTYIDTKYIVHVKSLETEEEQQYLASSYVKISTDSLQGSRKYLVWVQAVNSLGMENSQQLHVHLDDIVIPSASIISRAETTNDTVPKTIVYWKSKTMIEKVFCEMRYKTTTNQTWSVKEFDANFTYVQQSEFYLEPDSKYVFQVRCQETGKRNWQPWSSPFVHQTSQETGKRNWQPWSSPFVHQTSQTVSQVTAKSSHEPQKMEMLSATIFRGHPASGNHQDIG

B1: mIL23R VHH4 (VHH)
VHH: QVQLQESGGGSVQAGGSLRLSCAASGYTYSNNCMGWFRQAPGKDRERIANIYTGGGRTTYADSVKGRFTISQDSAKSTVYLQMNSLKPEDTAMYYCAAGSCGSARSEYSYWGQGTQVTVSS
B2: mIL23R VHH29 (VHH)
VHH: QVQLQESGGGLVQPGGSLRLSCAASGFTFSTSAMTWVRQAPGKGLDWVSGIDSGGTTVYADSVKGRFTISKDNAKNTLYLQMNSLKTEDTAVYYCATGLPWGNTWRTRGQGTQVTVSS
B3: mIL23R VHH26 (VHH)
VHH: QVQLQESGGGSVQAGGSLRLSCAASGYTFCMAWFRQAPGKEREGVARFYTRDGYTYYSDSVKGRFTISQNNAKNTLYLQMNSLKSEDTAMYYCAADLTRCSSNKNDFRYWGQGTQVTVSS
B4: mIL23R VHH22 (VHH)
VHH: B3 VHH with G53S
B5: mIL23R VHH24 (VHH)
VHH: B3 VHH with A24V, D59G
B6: mIL23R VHH5 (VHH)
VHH: B3 VHH with T98A
B7: mIL23R VHH43 (VHH)
VHH: B3 VHH with N70D
B8: mIL23R VHH6 (VHH)
VHH: QVQLQESGGGSVQAGGSLRLSCAASGYTSGNYWMGWFRQAPGKEREGVATLWTGGASTFYGDSVKGRFTISRDNFKNTLYLQMNSLKVEDTAMYYCAADPALRLGANILRPAEYKYWGQGTQVTVSS
B9: mIL23R VHH12 (VHH)
VHH: QVQLQESGGGSVQAGGSLRLSCAASGYTYSSCTMGWYRQAPGKERELVSMLISDGSTFYADSVKGRFTFSQENAKNTVYLQMNSLKPEDTAMYYCGCATLGSRTVWGQGTQVTVSS
B10: mIL23R VHH25 (VHH)
VHH: B9 VHH with Y94F
B11: mIL23R VHH8 (VHH)
VHH: B9 VHH with A23T, G26R, L51V, I52F, V105I
B12: mIL23R VHH16 (VHH)
VHH: B9 VHH with Y27D, E46D, I52M, S53G, S84N, V105I
B13: mIL23R VHH1 (VHH)
VHH: B9 VHH with N73Y
B14: mIL23R VHH10 (VHH)
VHH: B9 VHH with Y27D, E46D, I52M, S53G, V105I
B15: mIL23R VHH36 (VHH)
VHH: B9 VHH with Y27D, E46D, L51V, I52F, V105I
B16: mIL23R VHH15 (VHH)
VHH: B9 VHH with L51V, I52F, V105I
B17: mIL23R VHH11 (VHH)
VHH: B9 VHH with N76S
B18: mIL23R VHH27 (VHH)
VHH: B9 VHH with F69S
B19: mIL23R VHH18 (VHH)
VHH: QVQLQESGGGLVQPGGSLRLSCAASGFTFRLTAMRWVRQAPGKGLEWVSGIDSRGSTIYADSVKGRFTISKDNAKNTLYLQLNSLKTEDTAMYYCAQGVYGDTYSGSQGTQVTVSS
B20: mIL23R VHH45 (VHH)
VHH: B19 VHH with T32S, K64E
B21: mIL23R VHH30 (VHH)
VHH: B19 VHH with Q108L
B22: mIL23R VHH42 (VHH)
VHH: B19 VHH with R30S, L31N, T32Y
B23: mIL23R VHH17 (VHH)
VHH: B19 VHH with L11S, P14A
B24: mIL23R VHH34 (VHH)
VHH: B19 VHH with Y104H
B25: mIL23R VHH28 (VHH)
VHH: B19 VHH with K71R, T90A
B26: mIL23R VHH40 (VHH)
VHH: B19 VHH with T87S
B27: mIL23R VHH19 (VHH)
VHH: B19 VHH with T32S
B28: mIL23R VHH13 (VHH)
VHH: B19 VHH with A24T, T32A
B29: mIL23R VHH44 (VHH)
VHH: B19 VHH with T32S, L45F
B30: mIL23R VHH46 (VHH)
VHH: B19 VHH with T32S, N73D
B31: mIL23R VHH2 (VHH)
VHH: B19 VHH with L11S, P14A, R19T, A23T, S25P, T32A
B32: mIL23R VHH9 (VHH)
VHH: B19 VHH with A24T, L45V, R54A, L82M
B33: mIL23R VHH23 (VHH)
VHH: B19 VHH with T28N, T32Y, L45V, R54G
B34: mIL23R VHH31 (VHH)
VHH: B19 VHH with K71R
B35: mIL23R VHH3 (VHH)
VHH: QVQLQESGGGSVQAGGSLRLSCTASVNTYCEYNMSWYRQAPGKEREFVSGVDSDGSTRYSESVKGRFTISQDNAKNTMYLQMNGLKPEDTAMYYCKTYVCTFCSGNSCYYEYKYYYEGQGTQVTVSS

Numbering of substitutions follows the chain as printed.

The target in this assay is T1, extracellular domain of mouse IL23R …. The assay is described as follows: periplasmic extract ELISA (PE-ELISA), 96-well plate, colorimetric. (In general: In an ELISA, binding on a coated surface is turned into a signal by an enzyme label.)
Take B1: the binding result is “binds”.
B2: the binding result is reported as “binds”.
Take B3: the binding result is reported as “binds”.
As to B4, the binding result is on record as “binds”.
As for B5, the binding result is on record as “binds”.
To B6 belongs “binds”.
Under B7 stands “binds”.
Consider B8, for which the binding result is recorded as “binds”.
As to B9, the binding result is “binds”.
With B10, the binding result is given as “binds”.
Regarding B11, the binding result is “binds”.
For the molecule B12, the binding result was “binds”.
Regarding B13, the binding result is “binds”.
Consider B14, for which the binding result is given as “binds”.
Consider B15, for which the binding result is reported as “binds”.
To B16 belongs “binds”; to B17, “binds”; to B18, “binds”.
Under B19 stands “binds”; under B20, “binds”; under B21, “binds”.
On to B22, for which the binding result is recorded as “binds”.
Under B23 stands “binds”; under B24, “binds”.
To B25 belongs “binds”; to B26, “binds”; to B27, “binds”.
On to B28, for which the binding result is reported as “binds”.
For B29, the binding result is given as “binds”.
For the molecule B30, the binding result is “binds”.
As to B31, the binding result was “binds”.
On to B32, for which the binding result is reported as “binds”.
Take B33: the binding result is “binds”.
To B34 belongs “binds”.
For B35, the binding result is “binds”.
